According to IntAct's records for PubMed 31404830:

B1: PRL-1 phosphatase (Drosophila melanogaster (Fruit fly)), O61722 (parent)
chain: MSITMRQKDLRPAPALIEYKGMKFLITDRPSDITINHYIMELKKNNVNTVVRVCEPSYNTDELETQGITVKDLAFEDGTFPPQQVVDEWFEVLKDKYQQNPEACVAVHCVAGLGRAPVLVALALIELGLKYEAAVEMIRDKRRGAINAKQLSFLEKYKPKARLKHKNGHKNSCSVQ

Variants of: B1
Conditions: with uex_drome uex

Question: How did the “effect of a mutation on the interaction” value turn out when MSITMRQKDLRPAPALIEYKGMKFLITDRPSDITINHYIMELKKNNVNTVVRVCEPSYNTDELETQGITVKDLAFEAGTFPPQQVVDEWFEVLKDKYQQNPEACVAVHSVAGLGRAPVLVALALIELGLKYEAAVEMIRDKRRGAINAKQLSFLEKYKPKARLKHKNGHKNSCSVQ was run?
Answer: decreasing interaction strength
